Data from a protein production outcome set (Wang et al. 2014).

Test: label from the status in PepcDB records
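Further: failed if final PepcDB status was selected cloned or expressed and not failed if soluble or beyond.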

Sequence: MKIYLVGGAVRDALLGLPVKDKDWVVVGATPQEMLDAGYQQVGRDFPVFLHPQTHEEYALARTERKSGSGYTGFTCYAAPDVTLEADLQRRDLTINALARDDAGQIIDPYHGRRDLEARLLRHVSPAFGEDPLRVLRVARFAARYAHLSFRIADETLALMREMTAAGELEHLTPERVWKETENALTTRNPQVYFQVLRDCGALRVLFPEIDALFGVPAPAKWHPEIDTGVHTLMTLSMAAMLSPQLDVRFATLCHDLGKGLTPKNLWPRHHGHGPAGVKLVEQLCQRLRVPNDLRDLAKLVAEYHDLIHTFPILQPKTIVKLFDAIDAWRKPQRVEQIALTSEADVRGRTGFEASDYPQGRWLREAWQVAQAVPTKEVVEAGFKGIEIREELTKRRIAAVANWKEKRCPNPAS
- protein production: failed

Sequence: MKQFLITGGTGMVGSQLVNKLKNRDVHITILTRSDKQSDDPKISYVNWSKDGWMSQVPDIDVVVNLAGATLNKRWTPSYKQLIMTSRIQSTQSLVDLFSQREHKPEVLFNASAMGYYPPSLYHTYTEKYQTHPFDFLSDVVYQWERFAKRFESFGTRVVLGRFSMILSNDGGALQTMKLPYKFFVGGKLGSGFQWYSWIHINDLVRAILFTIDNPNAKGPFNMAAPIAERQNLFGYTLARVMHRPHETWVPSFLMRLALGEMSTVVLDTQKVLPNKLDALGFTFNYSNLKIAFEDLIDALEHHHHHH
- protein production: failed

Sequence: MRMRSGTAVAGVAALAVAGMALTAAFEPVWAHGPTRQKVRESIEINAAPAKVWAVIGNFQDMSWLPPVTKTEGEKGNEIGATRRLTLTGGATVDEELYKFDAAAMTYSYRITAVDVKVLPVTNYSSTLTVTPSADGKGATLEWAGAFYRGFPNNDPPPELSDEAAKTAVSGLYKAGLEALKKKIESGS
- protein production: failed

Sequence: MAVTHRTRRPLRAANKTTNAASLGATCSRQQRARLVHCVGRRTNCLAPALCSPRFTAIPRWSSNAMSMSLADARYLFNRILGLIHRSMASMRTRGWRATWQRIRVHTQAPPVALGTPLWLPQPAPFAAFALPHSAAPRVSVVIPVYNHIAHTLACLRSLAAHPPLVDVEIIVVDDGSSDATAEQLPQVAGLHYHLRASNGGFIAACNDGIALARGDFVVLLNNDTIPQPGWLDRLIDTFAQHPSAGLIGAQLVYPDGRLQESGGVVFGDGSAWSYGRFESSDDPRYAYVRAMDYCSGAAIALPRTLLQTLGGLDRRYMPAYYEDTDLAFAVRAAGYQVLVQPASVVVHDEGTSNGTDTRTGVKAYQVRNQNVFAEKWQQALKAQLPVGTVPGPALLHRGQRQVLILDECVPQPDRDSGSLRQFNLIRLLREEGAHVVFVPTRREHAGRHTQALQQLGAEVWYAPFLEGVGSWLRTHGARFAVVLLVRHHVAHACLPLLKQYAPQARTLFDTVDLHYLRERRGAEVAGDANLLHGAERTRLRELEIMAATDVTLLVSAAEQAQLRTDAPHIRTALLSNLHDVAGSGHSFAQRRDLVFVGGFRHPPNVDAVQWFISAIFPQVRAQLPDVVFHCIGADLPDALKLLADECTGVQLHGHVPDLVPFMDNARIAVAPLRFGAGVKGKINLSMAHGQPVVGTTCAVEGMHLRDGEDVCVADDANAFAAAIVRLYQDAALWQRLADNGLRNVAEYFSLDAARATVRALFIAE
- protein production: failed

Sequence: MSLSKPLFIFEMANNHMGNVEHGVALIRAIRESCQGFDFDFGFKLQYRNLDTFIHSSFKGRDDVKYVKRFEETRLQPEQMQKLVAEMKANGFKAICTPFDEESVDLIEAHGIEIIKIASCSFTDWPLLERIARSDKPVVASTAGARREDIDKVVSFMLHRGKDLTIMHCVAEYPTPDDHLHLARIKTLRQQYAGVRIGYSTHEDPDLMEPIMLAVAQGATVFEKHVGLPTDQYGINNYSANPEQVRRWLAAAARALAMLGDGEDDAVSETEQASLRSLRRGVFATRPVAAGEALTADNVSFAFPPVEGQLTANEWSKYVRYTAKTPIAADAPVMAADLEPVNEGHHHHHH
- protein production: not failed

Sequence: MCAEIPAMGPDLAIARAAAARWRKRAAEREQTRKTLDHQPAGHFTPVDSVDRLAKRAGRLQQWAAAIRALPPAAILGLPAAPPPTGGAADTREIDMVAPALSLRALAAERIIGETSDLLSVEFLEIGVAAARAVGLITTRGAPNGTGFLVAPDVVLTNNHVLPDVRTARASALEMDFETNRHGPRKEVQSFELDPDGFFLTDAPLDFTLVRVRPTSDGGQALSDYGFLPLIAAEGKIAVGEPLNIIQHPGGRVKQAALRNNRLLDLPPSNEADALNPDAVFHYETDTEKGSSGSPVFNDQWEVVALHHTGVPKTDASGAMIDADGRVVPDSQPERIVWIGNEGIRISRLYQYVFTFTFADPAMASVRDALIALWTDAGRPGWARTAAEAETIVHPPAALADPPPAAPAIIPLAEERGAAIAPDPADPAYARRPGFRSDFLGLPTPLPRLVDDSRGPLATFGEGVSELRYHHYSVLMNARRRLAYVAAVNIDHRAPFDVQRGTDRWFFDPRLPKRLQAGGDYYAANPLDRGHLVRRDDAAWGYTQAEAQLANDDTFHWTNCSPQHEVFNQSAKASGKGLLLWGNLENAVVDLAKATNGRLCVYNGPLFTEDDRPYRQDFFVPGAFWKLIALIDGQSRPRALAFRLSQAAQIADLPAEAFAPAELAAFTPVQIPVATLGALTGLDFGALAQWDPLAAGSDGVSKETLSPPRSIILTREADIVF
- protein production: failed

Sequence: MNNVSEERVAEMIWDAVSEGATLKDVHGIPQDMMDGLYAHAYEFYNQGRLDEAETFFRFLCIYDFYNPDYTMGLAAVCQLKKQFQKACDLYAVAFTLLKNDYRPVFFTGQCQLLMRKAAKARQCFELVNERTEDESLRAKALVYLEALKTAETEQHSEQEKELEHHHHHH
- protein production: not failed

Sequence: MKKKNNNKLHYLDSKGKLYTSGLRSDTKEKYGEIPSSNKNHNLIEKYNELQSLLSKEEEKYDFVKNELGDLQKQKDLLKWHLCNNIKKLSMKRSDYKFKTETKSKLESKLKSLKDMNKIHKFEHDTLEELVHKMEQELETKMYIKNDIENIFNECINKKDEYLKDITQERISVFKERKKRQNQLQKLLLIMKQENNKNYNINYLKKYESNLMNEINSYKNYKDFETKIAMDLIDDHSLNDLYVT
- protein production: failed

Sequence: MSVSPSPFNGAEHPIKGIALICLAVLLFASHDTLSKYLSAFYPIVMVVWARYVVHTLLMLVVFVPRSGFSAVVRTKRPGLQLLRALCLIGTSLLFTTGLRYIPLAEATAVNFLAPLLVTALSVPFLGERVSRAQWLAVLAGFVGVLIVVRPGGALFTPAILLPLGSALCFGFYQLLTRKLSGVDSPTTSNFLTGILNSLIMSALLPFFWSTPTLVHGLFMIGLGTCGMLGHMLLTQAFRHAAPAMLAPFSYGQILFAGLFGYLIFDHTPDQYALVGIAVICLSGLAVAWAQRKR
- protein production: failed

Sequence: MFSRKDIIVLGMMIFALFLGAGNIIFPPMEGFSSGQHWTSASLGFVLTGVLMPFITLVVVAILGRGEELTKDLPKWAGTGFLVILYLTIGSTFAMPRITNVAYEMAWLPLGLTENNANVRFVFSLIFNLIAMGFMISPNTIISSVGKFMTPALLVLLIAVAITVFISPLSEIQAPSNAYENSHSLLIGLTSGYQTMDVLAAIAFGGIVARALSAKNVTKTKDIVKYTISAGFVSVILLAGLYFSLFYLGATSAAVAEGATNGGQIFSRYVNVLFGSAGTWIMAGIIVLASLTTLVGVTSASADYFSKFSVRFSYPFWAALFTAMTITVSQYGLTDLLRITIPALLLIYPVAIVLVLLQFLRKKLPSIKFTYNSTLLVTVCFSLCDSLNNVKMLPESINSLLKHFPLSSEGMAWLVPTLVMLVASIFIGKALHKTHS
- protein production: failed

Sequence: MIRNIVFDLGGVLIHLNREESIRRFKAIGVADIEEMLDPYLQKGLFLDLESGRKSEEEFRTELSRYIGKELTYQQVYDALLGFLEEISAEKFDYIDSLRPDYRLFLLSNTNPYVLDLAMSPRFLPSGRTLDSFFDKVYASCQMGKYKPNEDIFLEMIADSGMKPEETLFIDDGPANVATAERLGFHTYCPDNGENWIPAITRLLREQK
- protein production: not failed

Sequence: MADIIGLLLPFFGLIFIGYGAARITKQPVEAMGWLNTFIIYAALPALFFKLVSKTPVEELARMDFVAASLACTYGIFLAVFLIGRFVRRNSLAETTIQSFAASYGNIGYMGPGLALLALGEKAAVPVALIVCLENAAHFIVAPAMMAVAGGDKRSAGKLALDVARKVITHPFIVSVIAGFLAASLSWQPPEAVQRLVDYLAQSAAPCALFAMGVTLALRPMKRVPVEISYIVPAKLILHPLAAYLVLSSLGRFEPVWIYSAVLLAALPTATNVFVIGQQYHVWQERASATILISTVLSVFTLTGVVYFIQPF
- protein production: failed
